# Measurements from patent publication US20180030151A1 (MOGAM INSTITUTE FOR BIOMEDICAL RESEARCH, published 2018).
# Read-outs that look alike come from different tables or passages of the source.
# B1: clone T417 (antibody, V domains shown)
# VH: EVHLVESGGDLVKPGGSLKLSCAASGFTFSSYAMSWVRQTPDKRLEWVATITTGGSYTYYPDSVKGRFTISRDNAKNTLYLQMSSLKSEDTAMYYCARQDGNFLMDYWGQGTTVTVSS
# VL: not shown
# notes: also called T417 chimeric antibody
# How the values were obtained:
# Test in all cases: cell-based or functional assay
# [1] = biological target: T1, recombinant human TFPI (tissue factor pathway inhibitor) (human, UniProt P10646 29-304)
# [2] = biological target: T1, recombinant human TFPI (tissue factor …); remark: listed apart in the source
# [3] = biological target: T1, recombinant human TFPI (tissue factor …); remark: listed apart in the source
# [4] = biological target: T1, recombinant human TFPI (tissue factor …); remark: listed apart in the source
# [5] = biological target: T1, recombinant human TFPI (tissue factor …); remark: listed apart in the source
# [6] = biological target: T1, recombinant human TFPI (tissue factor …); remark: listed apart in the source
# [7] = biological target: T1, recombinant human TFPI (tissue factor …); remark: listed apart in the source
# [8] = biological target: T1, recombinant human TFPI (tissue factor …); remark: listed apart in the source
# [9] = biological target: T1, recombinant human TFPI (tissue factor …); remark: listed apart in the source
# [10] = biological target: T1, recombinant human TFPI (tissue factor …); remark: listed apart in the source
# [11] = biological target: T1, recombinant human TFPI (tissue factor …); remark: listed apart in the source
# [12] = biological target: T1, recombinant human TFPI (tissue factor …); remark: listed apart in the source
# [13] = biological target: T1, recombinant human TFPI (tissue factor …); remark: listed apart in the source
# [14] = biological target: T1, recombinant human TFPI (tissue factor …); remark: listed apart in the source
# [15] = biological target: T1, recombinant human TFPI (tissue factor …); remark: listed apart in the source
# [16] = biological target: T1, recombinant human TFPI (tissue factor …); remark: listed apart in the source
# [17] = biological target: T1, recombinant human TFPI (tissue factor …); remark: listed apart in the source
binder,measurement,setting,value
B1,"TFPI inhibitory activity, FXa activity assay, Ab 10 nM",[1],78.4%
same,"effect of inhibiting TFPI, FXa activity assay, Ab 10 nM",[1],72%
same,"A405, TF/FVIIa/FX complex assay, Ab 1.56 nM",[2],0.134
same,"A405, TF/FVIIa/FX complex assay, Ab 3.13 nM",[2],0.147
same,"A405, TF/FVIIa/FX complex assay, Ab 6.25 nM",[2],0.179
same,"A405, TF/FVIIa/FX complex assay, Ab 12.5 nM",[2],0.242
same,"A405, TF/FVIIa/FX complex assay, Ab 25 nM",[2],0.873
same,"A405, TF/FVIIa/FX complex assay, Ab 50 nM",[2],0.945
same,"A405, TF/FVIIa/FX complex assay, Ab 100 nM",[2],0.949
same,"% of Normalized, TF/FVIIa/FX complex assay, Ab 1.56 nM",[3],14.5%
same,"% of Normalized, TF/FVIIa/FX complex assay, Ab 3.13 nM",[3],16%
same,"% of Normalized, TF/FVIIa/FX complex assay, Ab 6.25 nM",[3],19.4%
same,"% of Normalized, TF/FVIIa/FX complex assay, Ab 12.5 nM",[3],26.3%
same,"% of Normalized, TF/FVIIa/FX complex assay, Ab 25 nM",[3],95%
same,"% of Normalized, TF/FVIIa/FX complex assay, Ab 50 nM",[3],103%
same,"% of Normalized, TF/FVIIa/FX complex assay, Ab 100 nM",[3],103%
same,"A405, TF/FVIIa/FX complex assay, Ab 1.56 nM",[4],0.145
same,"A405, TF/FVIIa/FX complex assay, Ab 3.13 nM",[4],0.16
same,"A405, TF/FVIIa/FX complex assay, Ab 6.25 nM",[4],0.186
same,"A405, TF/FVIIa/FX complex assay, Ab 12.5 nM",[4],0.251
same,"A405, TF/FVIIa/FX complex assay, Ab 25 nM",[4],0.88
same,"A405, TF/FVIIa/FX complex assay, Ab 50 nM",[4],0.908
same,"A405, TF/FVIIa/FX complex assay, Ab 100 nM",[4],0.945
same,"% of Normalized, TF/FVIIa/FX complex assay, Ab 1.56 nM",[5],15.2%
same,"% of Normalized, TF/FVIIa/FX complex assay, Ab 3.13 nM",[5],16.8%
same,"% of Normalized, TF/FVIIa/FX complex assay, Ab 6.25 nM",[5],19.5%
same,"% of Normalized, TF/FVIIa/FX complex assay, Ab 12.5 nM",[5],26.3%
same,"% of Normalized, TF/FVIIa/FX complex assay, Ab 25 nM",[5],92.2%
same,"% of Normalized, TF/FVIIa/FX complex assay, Ab 50 nM",[5],95.1%
same,"% of Normalized, TF/FVIIa/FX complex assay, Ab 100 nM",[5],99%
same,"A405, TF/FVIIa/FX complex assay, Ab 1.56 nM",[6],0.16
same,"A405, TF/FVIIa/FX complex assay, Ab 3.13 nM",[6],0.158
same,"A405, TF/FVIIa/FX complex assay, Ab 6.25 nM",[6],0.183
same,"A405, TF/FVIIa/FX complex assay, Ab 12.5 nM",[6],0.253
same,"A405, TF/FVIIa/FX complex assay, Ab 25 nM",[6],0.894
same,"A405, TF/FVIIa/FX complex assay, Ab 50 nM",[6],0.938
same,"A405, TF/FVIIa/FX complex assay, Ab 100 nM",[6],0.931
same,"A405, TF/FVIIa/FX complex assay (FX 5 nM), Ab 1.56 nM",[7],0.045
same,"A405, TF/FVIIa/FX complex assay (FX 5 nM), Ab 3.13 nM",[7],0.049
same,"A405, TF/FVIIa/FX complex assay (FX 5 nM), Ab 6.25 nM",[7],0.05
same,"A405, TF/FVIIa/FX complex assay (FX 5 nM), Ab 12.5 nM",[7],0.072
same,"A405, TF/FVIIa/FX complex assay (FX 5 nM), Ab 25 nM",[7],0.154
same,"A405, TF/FVIIa/FX complex assay (FX 5 nM), Ab 50 nM",[7],0.509
same,"A405, TF/FVIIa/FX complex assay (FX 5 nM), Ab 100 nM",[7],0.745
same,"% of Normalized, TF/FVIIa/FX complex assay (FX 5 nM), Ab 1.56 nM",[8],5.5%
same,"% of Normalized, TF/FVIIa/FX complex assay (FX 5 nM), Ab 3.13 nM",[8],6%
same,"% of Normalized, TF/FVIIa/FX complex assay (FX 5 nM), Ab 6.25 nM",[8],6.2%
same,"% of Normalized, TF/FVIIa/FX complex assay (FX 5 nM), Ab 12.5 nM",[8],8.9%
same,"% of Normalized, TF/FVIIa/FX complex assay (FX 5 nM), Ab 25 nM",[8],19%
same,"% of Normalized, TF/FVIIa/FX complex assay (FX 5 nM), Ab 50 nM",[8],62.9%
same,"% of Normalized, TF/FVIIa/FX complex assay (FX 5 nM), Ab 100 nM",[8],92%
same,"% of Normalized, TF/FVIIa/FX complex assay, Ab 1.56 nM",[9],5.2%
same,"% of Normalized, TF/FVIIa/FX complex assay, Ab 3.13 nM",[9],5.5%
same,"% of Normalized, TF/FVIIa/FX complex assay, Ab 6.25 nM",[9],5.8%
same,"% of Normalized, TF/FVIIa/FX complex assay, Ab 12.5 nM",[9],8.7%
same,"% of Normalized, TF/FVIIa/FX complex assay, Ab 25 nM",[9],32.1%
same,"% of Normalized, TF/FVIIa/FX complex assay, Ab 50 nM",[9],70.7%
same,"% of Normalized, TF/FVIIa/FX complex assay, Ab 100 nM",[9],95.5%
same,"FXa assay % of FXa alone, 0.625 nM Ab, 10 nM TFPI",[10],6%
same,"FXa assay % of FXa alone, 2.5 nM Ab, 10 nM TFPI",[10],10%
same,"FXa assay OD, 0.625 nM Ab, 10 nM TFPI",[10],0.061 OD
same,"FXa assay OD, 2.5 nM Ab, 10 nM TFPI",[10],0.098 OD
same,"FXa assay OD, 10 nM Ab, 10 nM TFPI",[10],0.753 OD
same,"FXa assay OD, 40 nM Ab, 10 nM TFPI",[10],0.887 OD
same,"FXa assay % of FXa alone, 2.5 nM Ab, 10 nM TFPI",[11],17.6%
same,"FXa assay % of FXa alone, 5 nM Ab, 10 nM TFPI",[11],75.9%
same,"FXa assay % of FXa alone, 10 nM Ab, 10 nM TFPI",[11],85.2%
same,"FXa assay % of FXa alone, 20 nM Ab, 10 nM TFPI",[11],93.3%
same,"FXa assay OD, 2.5 nM Ab, 10 nM TFPI",[11],0.127
same,"FXa assay OD, 5 nM Ab, 10 nM TFPI",[11],0.546
same,"FXa assay OD, 10 nM Ab, 10 nM TFPI",[11],0.613
same,"FXa assay OD, 20 nM Ab, 10 nM TFPI",[11],0.67
same,"FXa assay % of FXa alone, 2.5 nM Ab, 10 nM TFPI",[12],9.2%
same,"FXa assay % of FXa alone, 5 nM Ab, 10 nM TFPI",[12],43.8%
same,"FXa assay % of FXa alone, 10 nM Ab, 10 nM TFPI",[12],75.2%
same,"FXa assay % of FXa alone, 20 nM Ab, 10 nM TFPI",[12],88.6%
same,"FXa assay OD, 2.5 nM Ab, 10 nM TFPI",[12],0.071
same,"FXa assay OD, 5 nM Ab, 10 nM TFPI",[12],0.337
same,"FXa assay OD, 10 nM Ab, 10 nM TFPI",[12],0.579
same,"FXa assay OD, 20 nM Ab, 10 nM TFPI",[12],0.682
same,"FXa assay % of FXa alone, 2.5 nM Ab, 10 nM TFPI",[13],7.7%
same,"FXa assay % of FXa alone, 5 nM Ab, 10 nM TFPI",[13],29.9%
same,"FXa assay % of FXa alone, 10 nM Ab, 10 nM TFPI",[13],56.8%
same,"FXa assay % of FXa alone, 20 nM Ab, 10 nM TFPI",[13],75.6%
same,"FXa assay OD, 2.5 nM Ab, 10 nM TFPI",[13],0.0625
same,"FXa assay OD, 5 nM Ab, 10 nM TFPI",[13],0.242
same,"FXa assay OD, 10 nM Ab, 10 nM TFPI",[13],0.461
same,"FXa assay OD, 20 nM Ab, 10 nM TFPI",[13],0.614
same,"FXa assay % of FXa alone, 2.5 nM Ab, 10 nM TFPI",[14],5.4%
same,"FXa assay % of FXa alone, 5 nM Ab, 10 nM TFPI",[14],8%
same,"FXa assay % of FXa alone, 10 nM Ab, 10 nM TFPI",[14],30.7%
same,"FXa assay % of FXa alone, 20 nM Ab, 10 nM TFPI",[14],58.5%
same,"FXa assay OD, 2.5 nM Ab, 10 nM TFPI",[14],0.041
same,"FXa assay OD, 5 nM Ab, 10 nM TFPI",[14],0.061
same,"FXa assay OD, 10 nM Ab, 10 nM TFPI",[14],0.234
same,"FXa assay OD, 20 nM Ab, 10 nM TFPI",[14],0.446
same,"FXa assay % of FXa alone, 2.5 nM Ab, 10 nM TFPI",[15],5.5%
same,"FXa assay % of FXa alone, 5 nM Ab, 10 nM TFPI",[15],7.1%
same,"FXa assay % of FXa alone, 10 nM Ab, 10 nM TFPI",[15],28.8%
same,"FXa assay % of FXa alone, 20 nM Ab, 10 nM TFPI",[15],54.5%
same,"FXa assay OD, 2.5 nM Ab, 10 nM TFPI",[15],0.048
same,"FXa assay OD, 5 nM Ab, 10 nM TFPI",[15],0.062
same,"FXa assay OD, 10 nM Ab, 10 nM TFPI",[15],0.251
same,"FXa assay OD, 20 nM Ab, 10 nM TFPI",[15],0.474
same,"FXa assay % of FXa alone, 2.5 nM Ab, 10 nM TFPI",[16],7.2%
same,"FXa assay % of FXa alone, 5 nM Ab, 10 nM TFPI",[16],10.2%
same,"FXa assay % of FXa alone, 10 nM Ab, 10 nM TFPI",[16],43.9%
same,"FXa assay % of FXa alone, 20 nM Ab, 10 nM TFPI",[16],66.9%
same,"FXa assay OD, 2.5 nM Ab, 10 nM TFPI",[16],0.0855
same,"FXa assay OD, 5 nM Ab, 10 nM TFPI",[16],0.122
same,"FXa assay OD, 10 nM Ab, 10 nM TFPI",[16],0.522
same,"FXa assay OD, 20 nM Ab, 10 nM TFPI",[16],0.797
same,"FXa assay % of FXa alone, 2.5 nM Ab, 10 nM TFPI",[17],6.9%
same,"FXa assay % of FXa alone, 5 nM Ab, 10 nM TFPI",[17],20%
same,"FXa assay % of FXa alone, 10 nM Ab, 10 nM TFPI",[17],45.4%
same,"FXa assay % of FXa alone, 20 nM Ab, 10 nM TFPI",[17],72.9%
same,"FXa assay OD, 2.5 nM Ab, 10 nM TFPI",[17],0.057
same,"FXa assay OD, 5 nM Ab, 10 nM TFPI",[17],0.165
same,"FXa assay OD, 10 nM Ab, 10 nM TFPI",[17],0.375
same,"FXa assay OD, 20 nM Ab, 10 nM TFPI",[17],0.603
